According to the supplement of paper PMC12764529:
± gives the half width of the 95% confidence interval.

Experiments:
[1] = folding stability dG unfold (combined trypsin and chymotrypsin); higher = more stable
Procedure, shortened: (§1)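 Bayesian fitting of sequencing counts gave K50 for each design. Unfolding free energy followed by setting this against a sequence-predicted unfolded-state K50 and a shared folded-state K50, either per protease or with trypsin and chymotrypsin combined. The designs, under 80 residues and lacking cysteine, were digested in a PA-tagged cDNA display format at 11 threefold-diluted protease concentrations and without protease, and only those with AlphaFold2 dimer inter-PAE above 15 were kept.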

[2] = folding stability dG unfold from chymotrypsin proteolysis; higher = more stable
Procedure, shortened: as §1

[3] = folding stability dG unfold from trypsin proteolysis; higher = more stable
Procedure, shortened: as §1

Row | Sequence | folding stability dG unfold [1] [kcal/mol] | folding stability dG unfold [2] [kcal/mol] | folding stability dG unfold [3] [kcal/mol]
1 | SAGGKEIYVVRIEVYYPSNGKVEEKEYVIEATPEEAEELAKKIAEAFKEEAGEEVEVLRVEIKVYDLSAGGS [r16_140_TrMRF] | 4.65 ± 0.12 | 4.68 ± 0.072 | 3.82 ± 0.22
2 | SAGGKEVKITFKAPKEEAVPKVKKAAEEYGVTVKSIDYDPETGKVTVVVDDSVPEEKVKEAFEKVLKSAGGS [r8_338_TrMRF] | 1.75 ± 0.21 | 1.75 ± 0.082 | 1.53 ± 0.078
3 | SAGGKEVVIVFPLPENFEAEIFIPDRPVVRLENGLLVAVAPENVPALIVIRNPNGEELVLPVELLDLSAGGS [r8_72_TrMRF] | 1.32 ± 0.084 | 1.28 ± 0.014 | 1.27 ± 0.037
4 | SAGGKEYYLVKIEIEVTPENGKKETIEIELIVDGNPEEALKKAKEIAEYLEKKGFKVEIKKIEVYPASAGGS [r16_525_TrMRF] | 4.54 ± 0.15 | 4.55 ± 0.073 | 3.9 ± 0.15
5 | SAGGKIEEVARELAKELNAVSIDFRTEGDVPSVEIRFRIPGSPLWLRVTITRDPDGNISVSIEPDPRSAGGS [r16_433_TrMRF] | 3.75 ± 0.09 | 4.16 ± 0.074 | 2.94 ± 0.054
6 | SAGGKIKIMDIEIERHGGYYKIEIWIQVDTPDDIEDLLKAGVPNVEVERRRNPNGRLYVQAEFYIPAGSAGG [r13_506_TrROS] | 3.14 ± 0.26 | 3.49 ± 0.17 | 1.74 ± 0.11
7 | SAGGKIKIRNPKTGLIVEVLEYNPETGKFKVKVTFPDGSVEEKEFPGSLEDLIEWLESEGFPFEVEGSAGGS [r16_748_TrMRF] | 3.37 ± 0.16 | 3.72 ± 0.13 | 2.26 ± 0.13
8 | SAGGKIKKGETVKIKIEIENKNGEKKTIELEVKKEDLEKLKELIEKLKEKGFKIKKIEIKVLKKEKKSAGGS [r8_497_TrROS_Hall] | 2.51 ± 0.2 | 2.96 ± 0.03 | 1.02 ± 0.13
9 | SAGGKIKVTVEKEENGTYRVTVEITLPDGKKITITVTVPPGVKTEEEAKKLAEEKVKELLKKLGIKPSAGGS [r8_464_TrROS_Hall] | 4.11 ± 0.16 | 4.27 ± 0.14 | 3.72 ± 0.15
10 | SAGGKILIYPGSIEEAIEALKANPNTTVLVISPDGTLIEITVEELGPGPFKIDIKVIPLLPPLKPDEASAGG [r13_56_TrMRF] | 1.97 ± 0.069 | 2.212 ± 0.021 | 1.6 ± 0.043
11 | SAGGKITAFVLVELPDGSVVERTYEFERLDDLLAFLEADPGPKLADLEIIPPEGSDDIIIPLVARVEPSAGG [r13_796_TrMRF] | 1.77 ± 0.1 | 2.15 ± 0.053 | 0.883 ± 0.041
12 | SAGGKITIEVTYNKETGEITIRITFNGKTIEIKIKVPGLSEEEVKKLAEELAKKLKEKYGIDKVEITSAGGS [r16_249_TrROS_Hall] | 4.36 ± 0.29 | 4.4 ± 0.11 | 4.36 ± 0.45
13 | SAGGKKEKIVEIKLLDMSYDPENKTVTFKFLVKLENGEEKVIELKISAEDFEKMSLEDILKAVKDFFESAGG [r13_512_TrMRF] | 4.72 ± 0.15 | 4.83 ± 0.09 | 3.74 ± 0.16
14 | SAGGKKEVILVIEIDLPESEEELLEEAERLAKELAELLGKEREVEVEVIEKDGKLIIVLRINGKEIVLSAGG [r13_845_TrROS_Hall] | 2.52 ± 0.32 | 2.68 ± 0.051 | 2.78 ± 0.23
15 | SAGGKKFKIKEITITYNPDADTVTMTVKLDDGTTVELTFNKETKKLTVKVINKDTGEEKEFEFTLPDSAGGS [r8_363_TrROS_Hall] | 4.77 ± 0.24 | 4.9 ± 0.25 | 3.1 ± 0.17
16 | SAGGKKIEIKEENGSLVIKVDGYLVTIEPIDGKLVATVVKKDKKTKKWKIVETKILTLDEILELLKKSAGGS [r8_174_TrROS_Hall] | 2.66 ± 0.099 | 3.034 ± 0.026 | 1.91 ± 0.057
17 | SAGGKKIKVEVKIEIKIEKNPDGSYTIRIKITVKVTNENGEKFEVKVELEITLSEEELEKLKKLLEELSAGG [r13_412_TrROS_Hall] | 3.5 ± 0.39 | 3.75 ± 0.46 | 3.07 ± 0.24
18 | SAGGKKIVIFIGPPEQMDRMQEQHPDEPVIPIPRDALQDPEPAKNLIKELQEKGKDVEIYLFKDFKPSAGGS [r8_376_TrROS] | -0.239 ± 0.17 | -0.287 ± 0.4 | -0.176 ± 0.31

Row | Sequence | folding stability dG unfold [1] [kcal/mol] | folding stability dG unfold [2] [kcal/mol] | folding stability dG unfold [3] [kcal/mol]
19 | SAGGKKIVLFVGPPELVEELKKAYPDLPFVPIPVEVLENPEPAAEIIKELKEKGYEVVVYNFPDLKESAGGS [r8_376_TrMRF] | 2.21 ± 0.071 | 2.562 ± 0.021 | 1.37 ± 0.057
20 | SAGGKKKKIEIEIVVKKEDLEKIAEELAKKLEEAGYKVKIKKIEVEVYKNKDGKIVYVKVRIEVEVEPSAGG [r13_707_TrROS_Hall] | 4.65 ± 0.53 | 4.82 ± 0.18 | 3.05 ± 0.47
21 | SAGGKKKKIKPKEIKVRIIIEKDGKKIEIELSEEELEKIKKAPTLEEIIKELEKKGFKIVKIEIEKKSAGGS [r16_567_TrROS_Hall] | 2.43 ± 0.21 | 3.05 ± 0.059 | 1.19 ± 0.073
22 | SAGGKKKKKKKKKKKKKVKVRVRIVVENKNGEKKEIEIELKGLTLEELKKLAKELEKKGFKVKKIEIESAGG [r13_227_TrROS_Hall] | 3.34 ± 0.39 | 3.53 ± 0.16 | 3.28 ± 0.3
23 | SAGGKKKKVIIVIEAPPGMSAEEIAAAIAEKLGLPKEEIKVERFKSVEEALAAAEKEGKEVIVIEVDSAGGS [r8_245_TrROS_Hall] | 2.41 ± 0.096 | 2.56 ± 0.059 | 2.06 ± 0.053
24 | SAGGKKKKVKKKKPVYRIKIKLKNGEEIEIEAKSKEEAEKAAKELLKKLFPEKKIDEIKIVEIEKLPPSAGG [r13_887_TrROS_Hall] | 2.69 ± 0.16 | 2.69 ± 0.12 | 2.54 ± 0.061
25 | SAGGKKKKVVIKLPSTNKAVEAELVSVKKGKNKYYLEIKLPNGKKYKFPLEVIGDFKWDEGEGTLEVPSAGG [r13_211_TrMRF] | 2.66 ± 0.11 | 2.98 ± 0.05 | 1.79 ± 0.047
26 | SAGGKKKLVEITIKVPPGMTVEELIAEIAKKLPPGAKIVKVEYDKETKEIKIIVYDEKTKKKIEIKFSAGGS [r16_250_TrROS_Hall] | 1.64 ± 0.14 | 1.51 ± 0.036 | 1.81 ± 0.049
27 | SAGGKKKTAEELAEELKKKLEELGFKVVKIEKLPDGTVLITFEDGYVIKFDVKTGKITIMPKEELEKLSAGG [r13_717_TrROS_Hall] | 1.96 ± 0.079 | 2.16 ± 0.029 | 1.62 ± 0.11
28 | SAGGKKKYKLIIKIKFKKGDIDKAKKEVEAIANKIKDEFEKKGVKVKVKVSYDKDNDIVYIEVEFEVPSAGG [r13_755_TrMRF] | 4.24 ± 0.14 | 4.43 ± 0.082 | 3.36 ± 0.12
29 | SAGGKKMTFKVDEIQTHGNQIMIPIRFPDGHPFPMQIDDPEQLDNLKPGEEIKIEFRPDGSFRIEWRSAGGS [r16_2_TrROS] | 1.55 ± 0.17 | 1.65 ± 0.18 | 1.45 ± 0.066
30 | SAGGKKPERVKITIMIPFDDPDKLRNFLRNHGFKVDEVEPNKEGMLAVEFEFPGYEIEIIIMDPGAMSAGGS [r16_170_TrROS] | 3.35 ± 0.14 | 3.74 ± 0.087 | 2.83 ± 0.16
31 | SAGGKKTFKVTLTLELKVERDEETGELKTETLTLTLTIEAESEEEAEKALKELLEKLELSPELKKALSAGGS [r16_40_TrROS_Hall] | 3.4 ± 0.097 | 3.76 ± 0.064 | 2.17 ± 0.082
32 | SAGGKKVFTLDELKKLAEELNIEKIEVKEDEEGIYTFTFTDLAKKTGKEVTIKIVRNKNGELLVEIEPSAGG [r13_163_TrROS_Hall] | 2.53 ± 0.14 | 2.9 ± 0.087 | 1.78 ± 0.074
33 | SAGGKKVKIKVTIVIKVEPGESVEEIAKKLAEELGLKVEVKVEVVKRKDGSLYVVIEVEIELPEELKPSAGG [r13_590_TrROS_Hall] | 2.85 ± 0.56 | 3.18 ± 0.24 | 2.3 ± 0.16
34 | SAGGKKVVIVFDVENLTPEQIRELVRKAIESLPDPENVVIVANVTSPATVEELAELAKEHPEVKFVVGSAGG [r13_718_TrMRF] | 3.56 ± 0.12 | 3.45 ± 0.085 | 3.79 ± 0.11
35 | SAGGKLTELIRSLFEKLNVPLEPLETGPNSAIFRFPGKPGVFELPGNSRIVIFEDGLVVVVAPPNDLSAGGS [r8_297_TrMRF] | 1.61 ± 0.081 | 1.57 ± 0.093 | 1.51 ± 0.1
